Laboratory results from patent US20090326205A1 (LIV TECH, published 2009).

Assays:
[1] = target: T1, purified recombinant hFA-1 protein (hDlk-1 extracellular region, FA-1) (human, UniProt P80370 24-303); test: ELISA method of Djavadi-Ohaniance: antibody (0.5 nM) equilibrated with hFA-1 (3.125-50 nM), then added to an hFA-1-coated plate
T1 construct: also called human FA1; purified FA-1; not shown: C-terminal Myc tag and His tag from vector pcDNA4/Myc-His
T1 sequence: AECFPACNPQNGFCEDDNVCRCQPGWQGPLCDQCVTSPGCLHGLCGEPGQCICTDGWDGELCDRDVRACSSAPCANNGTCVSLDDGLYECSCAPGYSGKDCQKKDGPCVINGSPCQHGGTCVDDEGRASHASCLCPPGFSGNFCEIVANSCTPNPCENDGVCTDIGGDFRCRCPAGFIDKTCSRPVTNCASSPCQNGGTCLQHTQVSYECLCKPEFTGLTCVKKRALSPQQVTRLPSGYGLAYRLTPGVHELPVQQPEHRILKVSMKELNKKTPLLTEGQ
Experimental: Specifically, the purified recombinant hFA-1 protein (1 μg/mL) was added to a 96-well culture plate (Corning) to fix as an antigen (at room temperature for 1 hour). Subsequently, the plate was washed with PBS 3 times and 2% skim milk (PBS solution) was added thereto for blocking (at room temperature for 1 hour). After the plate had been washed with PBS 2 times, an antigen-antibody complex formed by previously mixing an antigen solution (a purified hFA-1 protein; 50, 25, 12.5, 6.25 and 3.125 nM) with each clone of the anti-hDlk-1 monoclonal antibody (0.5 nM) and then equilibrating the mixture was added to the aforementioned ELISA plate for a reaction (at room temperature for 1 hour). After the plate had been washed with PBS 3 times, it was allowed to react with HRP-labeled anti-mouse IgG (final concentration: 1 μg/mL) or HRP-labeled anti-rat IgG (final concentration: 1 μg/mL) (both of which were available from GE Healthcare Biosciences), which had been diluted with a blocking solution, at room temperature for 1 hour.
Subsequently, the affinity (dissociation constant) of these clones for an antigen was calculated by the aforementioned ELISA method. […] The affinity of the clone 2-13 for the purified recombinant hFA-1 was not high and thus the Kd value thereof could not be calculated by the aforementioned method.

[2] = target: T1, purified recombinant hFA-1 protein …; test: ELISA, purified recombinant hFA-1 (0.5 to 1 µg/mL) immobilized, antibody dilution series
Experimental: ELISA was carried out in the same manner as described in Example 1, using an ELISA plate on which the purified recombinant hFA-1 protein (0.5 to 1 μg/mL) had been immobilized. Specifically, the ELISA plate was washed with a washing buffer 3 times and it was then blocked using a blocking solution at room temperature for 1 hour (or at 4° C. overnight). Thereafter, the plate was washed with a washing buffer 2 times and a mouse DI-2-14 antibody and a ChDI-2-14 antibody, wherein dilution series were produced using an ELISA buffer, were added to the plate, so that they were allowed to react (at 4° C. overnight). Thereafter, the plate was washed with a washing buffer 3 times and it was then allowed to react with HRP-labeled anti-mouse IgG (final concentration: 1 μg/mL) or HRP-labeled anti-human IgG (final concentration: 1 μg/mL) (both products manufactured by GE Healthcare), which had been diluted with a blocking solution.

[3] = target: T2, hDlk-1 EGF-like motif deletion construct EGF (5-6) expressed on COS-7 cells (human, UniProt P80370 170-383); test: FACS and immunostaining of transfected COS-7 cells
T2 construct: also called hDlk (EGF 5-6)-pME18-CHFX
T2 sequence: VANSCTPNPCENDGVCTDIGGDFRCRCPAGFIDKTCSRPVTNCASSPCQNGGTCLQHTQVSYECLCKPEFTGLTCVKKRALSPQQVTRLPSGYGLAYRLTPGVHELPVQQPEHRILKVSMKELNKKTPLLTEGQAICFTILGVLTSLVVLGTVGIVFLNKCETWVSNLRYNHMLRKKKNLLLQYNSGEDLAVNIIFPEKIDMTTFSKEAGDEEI
Excerpt: (§1) Each of expression vectors hDlk (EGF 1-2)-pME-CHFX, hDlk (EGF 1-3)-pME-CHFX, hDlk (EGF 3-4)-pME-CHFX, hDlk (EGF 4-6)-pME18-CHFX and hDlk (EGF 5-6)-pME18-CHFX (FIG. 7) was introduced into COS-7 cells and they were then subjected to FACS analysis and the immunostaining of Cytospin specimens, so as to examine sites in a region containing 6 EGF-like motifs existing in the FA-1 region (extracellular region) of hDlk-1, which were recognized by each anti-hDlk-1 monoclonal antibody.
(§2) It has been reported that, among mouse IgG isotypes, IgG2a and IgG2b have strong antibody-dependent cytotoxic activity (ADCC) and that the ADCC of IgG1 is low (please refer to Kipps, T. J. et al., 1985). The isotype of the clone DI-2-14 is mouse IgG1.

[4] = target: T3, hDlk-1 EGF-like motif deletion construct EGF (4-6) expressed on COS-7 cells (human, UniProt P80370 131-244); test: FACS and immunostaining of transfected COS-7 cells
T3 construct: also called hDlk (EGF 4-6)-pME18-CHFX; hdlk-EGF (4-6)/pME18S-CFHX
T3 sequence: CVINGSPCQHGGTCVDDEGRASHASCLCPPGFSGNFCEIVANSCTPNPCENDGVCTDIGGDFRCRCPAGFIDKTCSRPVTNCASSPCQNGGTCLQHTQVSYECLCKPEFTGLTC
Excerpt: as §1, §2

B1: anti-hDlk-1 monoclonal antibody clone DI-2-14 (mouse IgG1) (antibody, V domains shown)
VH: EVQLQQSGAELVKPGASVKLSCTASGFNIRDTYIHWVKQRPEQGLEWIGRIDPPNGNLKYDPKFQGKATITADTSSNTAYLQFSSLTSEDTAVYYCARSDGYSFAYWGQGTLVTVSA
VL: DIVMTQAAPSVPVTPGESVSISCRSSKSLLHSNGNTYLYWFLQRPGQSPQLLIYRMSNLASGVPDRFSGSGSGTAFTLRISRVEAEDVGVYYCMQHVEYPFTFGSGTKLEIK
notes: also called mouse DI-2-14; mouse DI-2-14 antibody
B1 was tested, and the Kd [1] was 9.26 nM, the EC50 [2] was 0.01 µg/mL and the binding result [3] was “no binding”. B1: no binding [4].

B2: chimeric DI-2-14 antibody (ChDI-2-14), mouse-human chimeric DI-2-14 IgG1/K (antibody, V domains shown)
VH: EVQLQQSGAELVKPGASVKLSCTASGFNIRDTYIHWVKQRPEQGLEWIGRIDPPNGNLKYDPKFQGKATITADTSSNTAYLQFSSLTSEDTAVYYCARSDGYSFAYWGQGTLVTVSA
VL: DIVMTQAAPSVPVTPGESVSISCRSSKSLLHSNGNTYLYWFLQRPGQSPQLLIYRMSNLASGVPDRFSGSGSGTAFTLRISRVEAEDVGVYYCMQHVEYPFTFGSGTKLEIK
notes: domain: human γ1 heavy chain constant region; not shown: human kappa chain constant region (CL) of vector pChDI-2-14
B2 showed an EC50 [2] of 0.01 µg/mL.
